B1: H2-Kb / B16 (parent)
chain 1: QQQVRQSPQSLTVWEGGTTVLTCSYEDSTFNYFPWYQQFPGEGPALLISILSVSDKKEDGRFTTFFNKREKKLSLHIIDSQPGDSATYFCAARGSALGRLHFGAGTQLIVIP
chain 2: EAAVTQSPRSKVAVTGGKVTLSCHQTNNHDYMYWYRQDTGHGLRLIHYSYVADSTEKGDIPDGYKASRPSQENFSLILELASLSQTAVYFCASSDGTNQAPLFGEGTRLSVL
chain 3: not shown
chain 4: IQKTPQIQVYSRHPPENGKPNILNCYVTQFHPPHIEIQMLKNGKKIPKVEMSDMSFSKDWSFYILAHTEFTPTETDTYACRVKHDSMAEPKTVYWDRDM
chain 5: SIINFEKL
B2: H2-Kb / E4 (parent)
chain 1: AQSVTQPDARVTVSEGASLQLRCKYSYSGTPYLFWYVQYPRQGLQLLLKYYSGDPVVQGVNGFEAEFIKSNSSFHLRKASVHWSDSAVYFCAVSAGQGGSAKLIFGEGTKLTVSS
chain 2: GGIITQTPKFLIGQEGQKLTLKCQQNFNHDTMYWYRQDSGKGLRLIYYSITENDLQKGDLSEGYDASREKKSSFSLTVTSAQKNEMAVFLCASSIWGDSYEQYFGPGTRLTVL
chain 3: not shown
chain 4: B1 chain 4
chain 5: SIINFEKL
B3: H2-Kb / B7 (parent)
chain 1: GQQVQQSPTSLVLQEGENAELQCNFSTSLNSMQWFYQRPGGSLVSVFYNPSGTKQSGRLTSTTVIKERRSSLHISSSQITDSGTYLCAMERDMGYKLTFGTGTSLLVDP
chain 2: EAAVTQSPRNKVAVTGGKVTLSCNQTNNHNNMYWYRQDTGHGLRLIHYSYGAGSTEKGDIPDGYKASRPSQENFSLILELATPSQTSVYFCASGDPGDQDTQYFGPGTRLLVL
chain 3: not shown
chain 4: B1 chain 4
chain 5: SIINFEKL

Variants of: B1
Test: % of reporter cells activated (NFAT-GFP), raw
Details: with B16; scale: % of reporter cells activated
Also: test concentration or dose not given here.

Variant	ratio to parent
chain 5 I2A	1.49
chain 5 I2C	1.48
chain 5 I2F	1.2
chain 5 I2D	1.19
chain 5 I2E	1.47
chain 5 I2G	1.56
chain 5 I2H	1.62
chain 5 E6I	0.917
chain 5 E6T	1.4
chain 5 E6W	1.05
chain 5 E6H	1.39
chain 5 E6D	1.36
chain 5 E6R	1.29
chain 5 E6S	1.25
chain 5 E6C	2.48
chain 5 E6V	1.2
chain 5 E6M	1.43
chain 5 E6F	1.48
chain 5 E6G	1.23
chain 5 E6P	1.09
chain 5 E6A	1.57
chain 5 E6Y	1.02
chain 5 E6N	1.36

Variant	ratio to parent
chain 5 E6L	1.21
chain 5 E6K	1.12
chain 5 E6Q	1.5
chain 5 F5S	1.27
chain 5 F5K	1.52
chain 5 F5P	1.74
chain 5 F5H	1.61
chain 5 F5W	1.26
chain 5 F5D	1.4
chain 5 F5M	1.52
chain 5 F5Q	1.39
chain 5 F5A	1.48
chain 5 F5T	1.4
chain 5 F5I	1.07
chain 5 F5L	1.44
chain 5 F5E	1.52
chain 5 F5G	1.52
chain 5 F5Y	1.31
chain 5 F5V	0.945
chain 5 F5N	1.21
chain 5 F5C	1.46
chain 5 F5R	1.2

Variants of: B2
Test: % of reporter cells activated (NFAT-GFP), raw
Details: with E4

Variant	ratio to parent
chain 5 S1R	0.565
chain 5 S1F	0.857
chain 5 S1Y	0.873
chain 5 S1M	0.857
chain 5 S1T	0.905
chain 5 S1V	0.889
chain 5 S1G	0.937
chain 5 S1E	0.698
chain 5 S1L	0.937
chain 5 S1K	1.24
chain 5 S1A	0.857
chain 5 S1W	0.841
chain 5 S1P	0.857
chain 5 S1D	0.984
chain 5 S1Q	0.889
chain 5 S1N	0.825
chain 5 S1I	0.825
chain 5 S1C	0.952
chain 5 S1H	0.841
chain 5 L8K	0.635
chain 5 L8A	0.286
chain 5 L8V	0.603
chain 5 L8T	0.73
chain 5 L8E	0.619
chain 5 L8W	0.762
chain 5 L8R	1.29

Variant	ratio to parent
chain 5 L8S	0.51
chain 5 L8Q	0.524
chain 5 L8P	0.762
chain 5 L8F	0.427
chain 5 L8Y	0.6
chain 5 L8H	0.825
chain 5 L8I	0.286
chain 5 L8M	0.381
chain 5 L8G	0.746
chain 5 L8C	0.46
chain 5 L8N	0.778
chain 5 L8D	0.444
chain 5 I2N	1.27
chain 5 I2S	0.651
chain 5 I2Y	0.825
chain 5 I2K	0.746
chain 5 I2F	0.746
chain 5 I2P	0.937
chain 5 I2W	1.11
chain 5 I2V	0.921
chain 5 I2E	0.873
chain 5 I2G	0.873
chain 5 I2H	1.06
chain 5 I2Q	0.937
chain 5 I2D	0.762
chain 5 I2A	1.43

Variant	ratio to parent
chain 5 I2L	1.1
chain 5 I2M	1.14
chain 5 I2C	1.19
chain 5 I2R	0.556
chain 5 I2T	0.968
chain 5 N4D	0.794
chain 5 N4I	0.873
chain 5 N4Y	0.762
chain 5 N4K	1.1
chain 5 N4Q	0.714
chain 5 N4H	1.05
chain 5 N4E	0.603
chain 5 N4M	0.968
chain 5 N4V	0.825
chain 5 N4L	1.02
chain 5 N4C	0.921
chain 5 N4F	0.635
chain 5 N4W	0.286
chain 5 N4S	0.714
chain 5 N4G	0.698
chain 5 N4A	0.889
chain 5 N4R	0.905
chain 5 N4P	0.651
chain 5 N4T	0.635
chain 5 F5A	1.1
chain 5 F5E	0.429

Variant	ratio to parent
chain 5 F5Q	0.778
chain 5 F5Y	0.492
chain 5 F5K	0.825
chain 5 F5G	0.46
chain 5 F5C	1.63
chain 5 F5M	0.629
chain 5 F5N	0.635
chain 5 F5H	0.825
chain 5 F5I	0.746
chain 5 F5P	0.762
chain 5 F5L	0.698
chain 5 F5V	0.206
chain 5 F5S	0.556
chain 5 F5T	0.841
chain 5 F5R	0.508
chain 5 F5D	1.32
chain 5 F5W	0.54
chain 5 E6Y	1.08
chain 5 E6M	0.54
chain 5 E6G	0.746
chain 5 E6I	0.873
chain 5 E6L	0.381
chain 5 E6H	1.21
chain 5 E6W	0.635
chain 5 E6P	0.46
chain 5 E6K	0.873

Variant	ratio to parent
chain 5 E6S	0.952
chain 5 E6C	0.651
chain 5 E6V	1.05
chain 5 E6F	0.698
chain 5 E6R	0.81
chain 5 E6T	0.841
chain 5 E6D	1.05
chain 5 E6A	0.635
chain 5 E6Q	0.778
chain 5 E6N	0.619
chain 5 I3T	0.571
chain 5 I3W	0.762
chain 5 I3F	0.762
chain 5 I3E	1.37
chain 5 I3V	0.698
chain 5 I3C	0.762
chain 5 I3L	1.22
chain 5 I3H	0.921
chain 5 I3N	0.667
chain 5 I3A	0.921
chain 5 I3R	0.603
chain 5 I3Y	0.508
chain 5 I3M	1
chain 5 I3P	0.206
chain 5 I3G	0.825
chain 5 I3K	0.937

Variant	ratio to parent
chain 5 I3Q	0.81
chain 5 I3D	0.73
chain 5 I3S	0.762
chain 5 K7P	0.508
chain 5 K7Q	0.521
chain 5 K7D	0.444
chain 5 K7A	0.413
chain 5 K7H	0.905
chain 5 K7W	0.413
chain 5 K7F	0.49
chain 5 K7I	1.29
chain 5 K7N	0.437
chain 5 K7C	1.32
chain 5 K7R	0.633
chain 5 K7G	0.841
chain 5 K7M	0.492
chain 5 K7S	0.46
chain 5 K7L	0.508
chain 5 K7V	0.841
chain 5 K7T	0.378
chain 5 K7Y	0.425
chain 5 K7E	0.873

Variants of: B3
Test: % of reporter cells activated (NFAT-GFP), raw
Details: with B7; scale: % of reporter cells activated

Variant	ratio to parent
chain 5 S1L	1.03
chain 5 S1D	1.55
chain 5 S1T	1.62
chain 5 S1Q	2.08
chain 5 S1N	0.862
chain 5 S1R	1
chain 5 S1M	1.42
chain 5 S1C	1.8
chain 5 S1P	1.74
chain 5 S1A	1.63
chain 5 S1W	1.77
chain 5 S1E	1.29
chain 5 S1G	1.57
chain 5 S1K	1.4
chain 5 S1V	1.8
chain 5 S1Y	1.37
chain 5 S1H	1.45
chain 5 S1I	0.969
chain 5 S1F	0.831
chain 5 L8V	0.585
chain 5 L8T	0.646
chain 5 L8K	0.785
chain 5 L8E	0.326

Variant	ratio to parent
chain 5 L8C	1.4
chain 5 L8I	0.831
chain 5 L8G	1.42
chain 5 L8R	1.69
chain 5 L8P	1.11
chain 5 L8N	1
chain 5 L8D	0.615
chain 5 L8A	0.862
chain 5 L8S	0.6
chain 5 L8F	0.677
chain 5 L8Q	0.938
chain 5 L8H	1.23
chain 5 L8M	0.892
chain 5 L8W	0.585
chain 5 L8Y	0.769
chain 5 F5V	0.615
chain 5 F5A	1.62
chain 5 F5R	0.923
chain 5 F5L	1.46
chain 5 F5Q	1.25
chain 5 F5W	1.55
chain 5 F5M	1.68
chain 5 F5I	0.938

Variant	ratio to parent
chain 5 F5C	1.97
chain 5 F5K	1.74
chain 5 F5H	1.34
chain 5 F5T	1.05
chain 5 F5E	1.49
chain 5 F5Y	1.2
chain 5 F5D	1.55
chain 5 F5G	1.03
chain 5 F5P	1.74
chain 5 F5S	0.831
chain 5 F5N	1.31
chain 5 N4T	1.12
chain 5 N4C	0.908
chain 5 N4A	1.31
chain 5 N4S	1.11
chain 5 N4P	0.877
chain 5 N4D	1.69
chain 5 N4Y	1.03
chain 5 N4K	1.45
chain 5 N4G	1.15
chain 5 N4I	1.43
chain 5 N4L	1.82
chain 5 N4W	1.28

Variant	ratio to parent
chain 5 N4H	1.49
chain 5 N4F	1.26
chain 5 N4Q	1.08
chain 5 N4V	0.985
chain 5 N4M	1.38
chain 5 N4E	1.35
chain 5 N4R	1
chain 5 K7Q	0.815
chain 5 K7N	0.954
chain 5 K7P	1.48
chain 5 K7G	0.738
chain 5 K7M	0.908
chain 5 K7C	1.05
chain 5 K7D	1.02
chain 5 K7H	1.66
chain 5 K7E	1.14
chain 5 K7R	0.358
chain 5 K7L	1.32
chain 5 K7A	1.17
chain 5 K7Y	1.18
chain 5 K7T	1.02
chain 5 K7W	0.769
chain 5 K7V	1.17

Variant	ratio to parent
chain 5 K7F	0.846
chain 5 K7S	1.18
chain 5 K7I	1.25
chain 5 E6Y	0.969
chain 5 E6V	1.02
chain 5 E6W	1.09
chain 5 E6T	1.63
chain 5 I3L	1.4
chain 5 I3F	1.02
chain 5 I3D	1.11
chain 5 I3W	1.48
chain 5 I3E	1.32
chain 5 I3A	1.68
chain 5 I3R	0.862
chain 5 I3V	1.17
chain 5 I3P	1.45
chain 5 I3Y	1.2
chain 5 I3Q	1.65
chain 5 I3G	1.86
chain 5 I3M	1.29
chain 5 I3H	1.68
chain 5 I3T	1.48
chain 5 I3C	1.58

Variant	ratio to parent
chain 5 I3N	1.62
chain 5 I3S	0.646
chain 5 I3K	1.75
chain 5 I2A	1.58
chain 5 I2H	1.83
chain 5 I2T	1.85
chain 5 I2P	1.72
chain 5 I2Q	1.25
chain 5 I2N	2.11
chain 5 I2F	1.05
chain 5 I2S	1.45
chain 5 I2R	0.846
chain 5 I2C	1.11
chain 5 I2D	1.45
chain 5 I2V	1.43
chain 5 I2E	1.35
chain 5 I2M	1.65
chain 5 I2L	1.62
chain 5 I2K	1.51
chain 5 I2W	1.46
chain 5 I2G	1.85
chain 5 I2Y	1.48

Reference: paper PMC11480844
